Data published in the supplement of paper PMC9732359.
± gives the uncertainty stated by the source.

Test: protein stability index of a GFP-peptide fusion (yeast GPS) (PSI 1-4); higher = more stable; sorted into four equal gates, so the index is relative within each strain
Method in brief: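 Sequencing reads from sorted gates were used to score each peptide. The library consisted of tiled 17-residue yeast protein peptides fused downstream of GFP on a Cherry-expressing plasmid, pooled and carried in yeast. Mid-log cultures in leucine-free medium were split into four equal gates by GFP/Cherry ratio, and each gate's plasmids were PCR-amplified and Illumina-sequenced. The protein stability index adds up, over all gates, the read frequency multiplied by the gate number.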

| Sequence | protein stability index (doa10∆) | protein stability index (pdr5∆) | protein stability index (san1∆) | protein stability index (ubr1∆) |
| --- | --- | --- | --- | --- |
| KSSLSLRDHALSLTAFT [ITC1] | 1.63 ± 0.036 | 2.14 ± 0.036 | 1.64 ± 0.064 | 2.16 ± 0.036 |
| IQVFEKPFLKKTQEYYT [CDC53] | 2.36 ± 0.073 | 2.33 ± 0.056 | 2.57 ± 0.078 | 2.57 ± 0.053 |
| LLIHRKGLTYLHLDYNF [PRP8] | 1.77 ± 0.043 | 1.28 ± 0.034 | 1.32 ± 0.079 | 1.56 ± 0.048 |
| KRVKSYMDKAKQYDNRI [LRP1] | 2.87 ± 0.047 | 2.89 ± 0.042 | 2.92 ± 0.04 | 2.83 ± 0.042 |
| SSEFVSQDTKVICSVTG [RRP46] | 2.67 ± 0.054 | 2.37 ± 0.056 | 2.43 ± 0.076 | 2.58 ± 0.059 |
| MRRFILGTTEGDIKVLD [RPN14] |  |  |  | 1.25 ± 0.18 |
| GSNNGFGNKPAGSTGFS [YGR119C/NUP57] | 1.65 ± 0.076 | 1.24 ± 0.083 | 1.27 ± 0.15 | 2.22 ± 0.16 |
| KNTSSMDFLNSMENTPK [GAL11] | 1.83 ± 0.059 | 1.67 ± 0.06 | 2.33 ± 0.12 | 3.02 ± 0.047 |
| ESKQDGLSILFLTGQFA [YML103C/NUP188] | 2.79 ± 0.078 | 2.57 ± 0.062 | 2.88 ± 0.059 | 2.72 ± 0.063 |
| IEKNVMESIGSDILTAE [RRP4] | 2.78 ± 0.092 | 3.04 ± 0.19 | 2.95 ± 0.2 |  |
| LEDELYHTNPGHSQFTS [RPN4] | 3.34 ± 0.11 | 3.15 ± 0.09 | 3.05 ± 0.082 | 3.21 ± 0.071 |
| TKPEVASDMSDEDIITI [CDC53] | 2.89 ± 0.14 | 2.56 ± 0.24 |  | 2.92 ± 0.12 |
| PRFNRDNKVSPAAAAKK [RPS26B] | 2.41 ± 0.12 | 2.5 ± 0.21 | 2.61 ± 0.11 | 2.76 ± 0.12 |
| SDFISKLEYPHTDVSSS [RPN3] | 2.56 ± 0.047 | 2.88 ± 0.054 | 2.82 ± 0.047 | 2.5 ± 0.045 |
| KYACLAIRKNGQIDFWY [SIN4] | 1.98 ± 0.067 | 2.16 ± 0.077 | 2.08 ± 0.071 | 2.39 ± 0.045 |
| GSNQQSSTGGGLFGNKP [YGR119C/NUP57] | 3.36 ± 0.093 | 3.28 ± 0.084 | 3.23 ± 0.058 | 3.28 ± 0.042 |
| RAKSSSHLFNEYSYVDS [RPN4] | 2.62 ± 0.16 | 3.23 ± 0.24 | 3.25 ± 0.19 | 2.63 ± 0.12 |
| FTLWWSPTINRANVYVG [PRP8] | 1.99 ± 0.089 | 1.88 ± 0.07 | 1.61 ± 0.15 | 2.04 ± 0.051 |
| TAKLQMRRFILGTTEGD [RPN14] | 1.41 ± 0.27 | 1.45 ± 0.095 |  |  |
| TGWHVDQAIVTETKRLV [DIB1] | 1.88 ± 0.074 | 2.24 ± 0.075 | 2.08 ± 0.25 | 1.9 ± 0.077 |
| STELNNKQYELFMKSLI [SWI1] | 3.03 ± 0.075 | 2.94 ± 0.058 | 3.16 ± 0.039 | 2.74 ± 0.048 |
| IAARRTGLLRGSQKTQD [RPL2A] | 2.83 ± 0.095 | 2.73 ± 0.064 | 2.66 ± 0.075 | 2.68 ± 0.079 |
| EILVTELTAQGYDPALL [RPN2] | 2.8 ± 0.27 | 3.36 ± 0.15 |  | 3.28 ± 0.1 |
| SKINELSYYVEETNVDI [SMC4] | 3.28 ± 0.17 | 2.98 ± 0.15 |  | 2.99 ± 0.15 |
| EDTNTKPLFDFGKTGDQ [YOR098C/NUP1] | 1.86 ± 0.25 |  |  |  |
| VEIEKRILKLGTQLATL [YGR119C/NUP57] | 2.11 ± 0.23 | 1.22 ± 0.14 | 1.94 ± 0.18 | 1.4 ± 0.066 |
| SLYQVDPSGSYFPWKAT [PRE8] | 2.87 ± 0.1 | 2.66 ± 0.11 | 2.65 ± 0.093 | 3.25 ± 0.099 |
| AYAQVEIQPRANIQLDF [FAS2] | 3.17 ± 0.061 | 3.06 ± 0.066 | 3.08 ± 0.057 | 3.16 ± 0.049 |

| Sequence | protein stability index (doa10∆) | protein stability index (pdr5∆) | protein stability index (san1∆) | protein stability index (ubr1∆) |
| --- | --- | --- | --- | --- |
| AFSYPRMYEEASGKEVE [RPN2] | 2.66 ± 0.09 | 1.34 ± 0.082 | 1.28 ± 0.11 | 1.35 ± 0.059 |
| EDVDDEELDITPLFPID [IRR1] | 2.99 ± 0.19 | 3.36 ± 0.15 | 3 ± 0.1 | 2.95 ± 0.075 |
| QWFEAHYGQTLGKKKNV [RPS8A] | 2.556 ± 0.025 | 2.876 ± 0.025 | 2.44 ± 0.027 | 2.647 ± 0.022 |
| VCGIIVKQEDMPFNDQG [RET1] | 3.06 ± 0.16 | 2.87 ± 0.24 | 2.46 ± 0.26 | 2.49 ± 0.21 |
| IEQCKHPLHELIIQYPP [ISW2] | 3.19 ± 0.1 | 2.82 ± 0.094 | 2.59 ± 0.1 | 3.1 ± 0.068 |
| FFTNPNKKRPSSKKVFS [YOR098C/NUP1] | 2.85 ± 0.059 | 3.1 ± 0.054 | 3.06 ± 0.046 | 3 ± 0.05 |
| KTDEVIILGTNLYDGAE [BRR2] | 2.98 ± 0.068 | 3.12 ± 0.055 | 3.06 ± 0.042 | 2.9 ± 0.043 |
| LSINKNFINQEDEGEER [RPC17] |  | 3.29 ± 0.28 |  |  |
| ANRDDVKGRENELLLPS [RPC82] | 3.37 ± 0.14 |  | 3.6 ± 0.09 | 3.34 ± 0.084 |
| KEEELIERDSLVDDENE [BRN1] |  |  |  | 3.25 ± 0.15 |
| PIMQTQMPLNSNGGNNM [SNF2] | 3 ± 0.059 | 2.92 ± 0.06 | 2.84 ± 0.057 | 2.62 ± 0.045 |
| VFFDDDPLYDITKVPAL [REC8] | 2.47 ± 0.063 | 2.92 ± 0.082 | 2.7 ± 0.065 | 2.88 ± 0.055 |
| GQHKNNTSLNINGWKFE [SWP82] | 3.09 ± 0.075 | 3.21 ± 0.074 | 3.05 ± 0.063 | 2.99 ± 0.077 |
| EFDEQYGTRPLVLPPVV [SNF2] | 3.08 ± 0.071 | 2.69 ± 0.063 | 2.86 ± 0.061 | 2.53 ± 0.046 |
| PSLEKSSFTFGSTTIEK [YLR335W/NUP2] | 2.17 ± 0.058 | 2.65 ± 0.086 | 1.66 ± 0.15 | 2.01 ± 0.056 |
| WNLNATKPNVLNDPSLK [SIN4] | 3 ± 0.088 | 2.94 ± 0.071 | 3 ± 0.054 | 3.26 ± 0.04 |
| LKIYKVGDIVDIKANGS [RPL21B] | 2.18 ± 0.058 | 1.88 ± 0.05 | 1.83 ± 0.062 | 2.08 ± 0.03 |
| VRELFEMARTKKACIIF [RPT1] | 1.12 ± 0.093 | 1.29 ± 0.11 | 1.08 ± 0.21 | 1.66 ± 0.14 |
| ISTLFQRDRHTLAYDRG [PRP8] | 2.58 ± 0.14 | 3.21 ± 0.13 | 2.68 ± 0.082 | 2.79 ± 0.058 |
| KVLGVKDMSPILGELKR [LRP1] | 2.71 ± 0.089 | 3.14 ± 0.068 | 2.88 ± 0.065 | 3.12 ± 0.045 |
| ENFAKGEHISAIVPGQS [SWP82] | 3.01 ± 0.064 | 3.18 ± 0.085 | 2.87 ± 0.06 | 3.05 ± 0.055 |
| VTRIINSSEIQSAIRPA [RPL4A] | 2.32 ± 0.083 | 2.54 ± 0.12 | 2.37 ± 0.07 | 2.26 ± 0.096 |
| KSRGSDLQYLGEFSGKN [RRP6] | 3.13 ± 0.088 | 3.34 ± 0.11 | 3.45 ± 0.082 | 3.31 ± 0.073 |
| SLRRIRDEMSKAELPQW [MED8] | 1.98 ± 0.071 | 2.36 ± 0.055 | 2.33 ± 0.072 | 1.92 ± 0.04 |
| RTLTAVHDKVLEDMVFP [RPS7B] | 3 ± 0.081 | 3.09 ± 0.069 | 2.81 ± 0.068 | 3.27 ± 0.074 |
| PLLRKVVDRESDIPKTT [PRE4] | 2.54 ± 0.11 | 2.46 ± 0.091 | 1.87 ± 0.13 | 2.79 ± 0.067 |
| ARIKDAFITQLESSITD [YJL039C/NUP192] | 2.83 ± 0.11 | 2.25 ± 0.1 | 1.14 ± 0.11 |  |
